{"source": "patent US20050152888A1", "key": {"[1]": {"target": "Rpn10 proteasome subunit C-terminally fused with Fpr1 (strain Rpn10-FPR1) (S. cerevisiae) (UniProt P38886)", "sequence (P38886 other isoform, or with tags, fused parts or gaps)": "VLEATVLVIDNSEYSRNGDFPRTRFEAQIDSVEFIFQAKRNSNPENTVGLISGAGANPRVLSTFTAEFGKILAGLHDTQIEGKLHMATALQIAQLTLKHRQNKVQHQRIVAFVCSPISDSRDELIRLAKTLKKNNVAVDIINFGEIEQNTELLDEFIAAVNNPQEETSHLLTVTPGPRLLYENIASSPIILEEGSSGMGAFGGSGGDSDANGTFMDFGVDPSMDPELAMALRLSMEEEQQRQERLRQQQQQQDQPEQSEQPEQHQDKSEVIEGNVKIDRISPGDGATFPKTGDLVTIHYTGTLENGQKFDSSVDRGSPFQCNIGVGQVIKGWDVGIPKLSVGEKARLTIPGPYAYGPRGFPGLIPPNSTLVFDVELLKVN", "experiment": "cell-based or functional assay"}, "[2]": {"target": "Pre10 proteasome subunit C-terminally fused with Fpr1 (strain Pre10-FPR1) (S. cerevisiae) (UniProt P21242)", "sequence (P21242 other isoform, or with tags, fused parts or gaps)": "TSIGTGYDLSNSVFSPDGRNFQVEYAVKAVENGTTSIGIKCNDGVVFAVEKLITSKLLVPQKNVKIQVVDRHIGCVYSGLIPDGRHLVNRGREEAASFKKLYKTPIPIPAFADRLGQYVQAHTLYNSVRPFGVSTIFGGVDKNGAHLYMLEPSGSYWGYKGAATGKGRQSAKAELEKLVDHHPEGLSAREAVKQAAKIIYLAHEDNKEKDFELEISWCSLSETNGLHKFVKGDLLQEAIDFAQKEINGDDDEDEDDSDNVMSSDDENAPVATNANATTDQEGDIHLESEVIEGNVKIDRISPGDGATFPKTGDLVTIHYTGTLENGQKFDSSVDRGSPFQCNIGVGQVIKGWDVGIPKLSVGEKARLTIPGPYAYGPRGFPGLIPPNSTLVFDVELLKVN", "experiment": "cell-based or functional assay"}}}
{"substance": "HA epitope-tagged Tor-His3 expressed in yeast (p415-TOR-link-HIS3HA) (from UniProt P35169 1883-2078; P06633 1-220)", "values": [{"measurement": "half-life of reporter degradation in vivo with rapamycin (cycloheximide chase, anti-HA Western)", "setting": "[1]", "result": "20 to 30", "unit": "min"}, {"measurement": "half-life of reporter degradation in vivo with rapamycin (cycloheximide chase, anti-HA Western)", "setting": "[2]", "result": "20 to 30", "unit": "min"}]}
